{"source": "paper PMC10119362", "origin": "cited, not measured here", "molecular_target": "Amyloid-beta monomer (Homo sapiens) (UniProt P05067)", "note": "pKd: −log10 of the molar value.", "data": [{"substance": "Gantenerumab", "values": [{"measurement": "pKd", "value": 7.64}]}]}
